Experimental data from paper PMC7721647, “The Human RNA Helicase DDX21 Presents a Dimerization Interface Necessary for Helicase Activity” (iScience, 2020).

Assays:
DDX21ΔN = molecular target: T1, DDX21ΔN (human, UniProt Q9NR30 186-783); experiment: fluorescence polarization; 50 mM KCl; FP: 50 mM Tris pH 7.5, 50 mM KCl, 5 mM MgCl2, no ATP; Hill-slope fit; temperature not given in the material; conditions: protein: recombinant; chain copies: 2; label: 5'-FAM; G4
T1 sequence: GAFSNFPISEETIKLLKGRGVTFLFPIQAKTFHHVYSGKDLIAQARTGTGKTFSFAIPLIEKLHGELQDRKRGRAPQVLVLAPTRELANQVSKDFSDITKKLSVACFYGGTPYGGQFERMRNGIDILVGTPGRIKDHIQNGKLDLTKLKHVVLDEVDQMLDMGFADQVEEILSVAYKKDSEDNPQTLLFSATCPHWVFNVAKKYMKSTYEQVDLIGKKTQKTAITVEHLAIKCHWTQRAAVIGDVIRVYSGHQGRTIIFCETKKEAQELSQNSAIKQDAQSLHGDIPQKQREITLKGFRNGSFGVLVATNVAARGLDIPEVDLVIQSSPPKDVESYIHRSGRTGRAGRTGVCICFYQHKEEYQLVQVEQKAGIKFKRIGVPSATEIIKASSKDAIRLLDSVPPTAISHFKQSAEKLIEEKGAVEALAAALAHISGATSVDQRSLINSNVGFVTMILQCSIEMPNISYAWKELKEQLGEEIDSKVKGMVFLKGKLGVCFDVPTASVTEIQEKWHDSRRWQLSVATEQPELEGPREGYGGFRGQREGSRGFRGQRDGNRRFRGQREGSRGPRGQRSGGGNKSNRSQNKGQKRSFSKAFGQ

DDX21Core = molecular target: T2, DDX21Core (human, UniProt Q9NR30 186-564); experiment: as above; conditions: protein: recombinant; label: 5'-FAM; G4
T2 sequence: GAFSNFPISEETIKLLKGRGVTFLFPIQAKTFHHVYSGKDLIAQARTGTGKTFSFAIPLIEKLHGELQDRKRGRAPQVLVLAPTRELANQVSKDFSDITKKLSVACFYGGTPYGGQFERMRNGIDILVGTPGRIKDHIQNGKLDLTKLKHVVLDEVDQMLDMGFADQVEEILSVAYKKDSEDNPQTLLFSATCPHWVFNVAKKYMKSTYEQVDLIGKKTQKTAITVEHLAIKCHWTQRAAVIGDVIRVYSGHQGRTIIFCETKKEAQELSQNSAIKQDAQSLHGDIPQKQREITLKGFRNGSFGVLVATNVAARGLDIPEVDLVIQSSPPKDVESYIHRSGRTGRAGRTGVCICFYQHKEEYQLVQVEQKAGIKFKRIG

DDX21ΔN monomer = molecular target: T3, DDX21ΔN monomer (human, UniProt Q9NR30 186-783, L611R;A612R;A613R;A614R;L615R;A616R); experiment: as above; conditions: protein: recombinant; label: 5'-FAM; G4
T3 sequence: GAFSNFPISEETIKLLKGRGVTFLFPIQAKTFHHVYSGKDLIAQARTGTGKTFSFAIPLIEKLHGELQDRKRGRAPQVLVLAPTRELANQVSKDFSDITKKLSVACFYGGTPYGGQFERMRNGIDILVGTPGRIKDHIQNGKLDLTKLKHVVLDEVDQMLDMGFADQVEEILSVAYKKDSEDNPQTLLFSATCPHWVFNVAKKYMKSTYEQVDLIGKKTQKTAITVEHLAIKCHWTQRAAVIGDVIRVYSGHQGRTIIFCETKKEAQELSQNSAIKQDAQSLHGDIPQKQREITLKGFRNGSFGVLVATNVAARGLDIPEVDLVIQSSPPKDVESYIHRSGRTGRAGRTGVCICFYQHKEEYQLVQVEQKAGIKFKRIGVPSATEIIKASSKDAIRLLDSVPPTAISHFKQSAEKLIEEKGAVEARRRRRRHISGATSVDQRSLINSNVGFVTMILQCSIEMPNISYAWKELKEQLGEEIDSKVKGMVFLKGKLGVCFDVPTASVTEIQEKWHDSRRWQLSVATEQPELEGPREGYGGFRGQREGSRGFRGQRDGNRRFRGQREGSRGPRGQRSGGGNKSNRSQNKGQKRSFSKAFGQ

DDX21ΔNC = molecular target: T4, DDX21ΔNC (human, UniProt Q9NR30 186-710); experiment: fluorescence polarization; 50 mM KCl (Table S2 prints 36.7); FP: 50 mM Tris pH 7.5, 50 mM KCl, 5 mM MgCl2, no ATP; Hill-slope fit; temperature not given in the material; conditions: protein: recombinant; chain copies: 2; label: 5'-FAM; G4
T4 sequence: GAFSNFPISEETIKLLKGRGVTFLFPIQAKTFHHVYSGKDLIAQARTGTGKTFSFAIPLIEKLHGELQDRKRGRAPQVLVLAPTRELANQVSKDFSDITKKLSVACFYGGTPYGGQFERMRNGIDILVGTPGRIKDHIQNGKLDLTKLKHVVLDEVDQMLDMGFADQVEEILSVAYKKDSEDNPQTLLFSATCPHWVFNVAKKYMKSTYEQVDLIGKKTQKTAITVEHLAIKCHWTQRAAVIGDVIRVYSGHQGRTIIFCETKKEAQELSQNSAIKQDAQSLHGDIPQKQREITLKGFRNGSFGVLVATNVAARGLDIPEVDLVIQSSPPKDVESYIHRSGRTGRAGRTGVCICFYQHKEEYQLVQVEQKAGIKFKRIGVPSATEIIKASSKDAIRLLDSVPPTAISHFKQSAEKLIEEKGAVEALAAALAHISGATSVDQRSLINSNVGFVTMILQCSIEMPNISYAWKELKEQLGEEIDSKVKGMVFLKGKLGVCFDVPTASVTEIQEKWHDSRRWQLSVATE

With GUUGGGGCGGGCGUUGGGUUUGGGGGGACG (structured_RNA) [Q2 RNA G-quadruplex] the Kd (DDX21ΔN) was 7.6 ± 0.5 nM, the Kd (DDX21Core) was 62.5 ± 4.9 nM and the Kd (DDX21ΔN monomer) was 2.9 ± 0.3 nM. For the same binder, the Kd (DDX21ΔNC) was 36.5 ± 2.7 nM.
